Drawing on PMC2757719, this text covers Kd and binding signal (fold increase vs P3 alone) for one sequence.

What all share (assay): EMSA
Holding throughout (conditions): 20 mM Tris pH 7.5, 200 mM NaCl, 1 ug salmon sperm DNA, 10 fmol probe, 20 ul, room temperature 10 min; 10% polyacrylamide gel
A general note: In EMSA bound probe runs differently from free probe, usually more slowly.

Series [1] concerns the target EBNA1 395-641;USP7 (Epstein-Barr virus;human?) (UniProt P03211+Q93009).
For series [2], the target named is T1, EBNA1 395-641 (Epstein-Barr virus) (UniProt P03211).
T1 sequence: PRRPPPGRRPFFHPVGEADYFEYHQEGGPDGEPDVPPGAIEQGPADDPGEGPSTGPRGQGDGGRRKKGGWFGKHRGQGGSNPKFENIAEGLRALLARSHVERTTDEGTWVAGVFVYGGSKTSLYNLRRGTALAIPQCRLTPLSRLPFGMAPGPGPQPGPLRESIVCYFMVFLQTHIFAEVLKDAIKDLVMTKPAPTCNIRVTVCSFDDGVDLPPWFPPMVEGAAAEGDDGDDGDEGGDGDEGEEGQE

The target in series [3] is EBNA1 452-641;USP7 (Epstein-Barr virus;human?) (UniProt P03211+Q93009).
Chain of EBNA1 452-641;USP7 (Epstein-Barr virus;human?) (Q93009 whole entry, one chain of several): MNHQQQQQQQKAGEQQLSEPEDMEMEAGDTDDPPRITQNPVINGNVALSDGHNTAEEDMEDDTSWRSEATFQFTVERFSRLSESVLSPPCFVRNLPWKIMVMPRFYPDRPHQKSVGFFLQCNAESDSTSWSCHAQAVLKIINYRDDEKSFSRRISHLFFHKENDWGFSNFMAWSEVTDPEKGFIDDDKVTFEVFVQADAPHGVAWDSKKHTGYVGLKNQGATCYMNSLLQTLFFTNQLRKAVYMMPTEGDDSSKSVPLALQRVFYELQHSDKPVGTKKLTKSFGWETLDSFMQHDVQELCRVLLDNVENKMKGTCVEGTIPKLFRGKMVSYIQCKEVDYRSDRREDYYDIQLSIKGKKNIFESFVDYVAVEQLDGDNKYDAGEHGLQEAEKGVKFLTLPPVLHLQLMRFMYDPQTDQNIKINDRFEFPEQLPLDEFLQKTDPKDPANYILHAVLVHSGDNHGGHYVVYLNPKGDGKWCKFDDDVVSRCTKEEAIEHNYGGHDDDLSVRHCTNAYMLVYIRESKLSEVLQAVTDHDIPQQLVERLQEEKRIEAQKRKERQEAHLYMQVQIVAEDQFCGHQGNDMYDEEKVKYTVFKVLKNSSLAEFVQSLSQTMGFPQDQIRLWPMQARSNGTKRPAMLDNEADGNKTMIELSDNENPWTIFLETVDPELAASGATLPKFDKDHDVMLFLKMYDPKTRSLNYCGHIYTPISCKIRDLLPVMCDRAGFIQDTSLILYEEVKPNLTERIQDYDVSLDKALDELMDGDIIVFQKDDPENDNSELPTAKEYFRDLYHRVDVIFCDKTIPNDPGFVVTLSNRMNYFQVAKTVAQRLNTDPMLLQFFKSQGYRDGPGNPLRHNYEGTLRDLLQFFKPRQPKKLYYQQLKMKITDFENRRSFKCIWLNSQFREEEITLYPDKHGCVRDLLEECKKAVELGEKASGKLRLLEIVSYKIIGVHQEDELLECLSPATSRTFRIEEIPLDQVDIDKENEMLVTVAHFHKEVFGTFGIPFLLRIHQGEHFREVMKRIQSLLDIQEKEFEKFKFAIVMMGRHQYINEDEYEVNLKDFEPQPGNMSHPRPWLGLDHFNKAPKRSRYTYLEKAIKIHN

Chain of EBNA1 395-641;USP7 (Epstein-Barr virus;human?) (Q93009 whole entry, one chain of several): as above

Usually Kd stands for the free concentration of one partner at which half of the binding sites on the other are occupied at equilibrium, for simple one-to-one binding. A low value points to a tighter complex. As to “CGGGAAGCATATGCTACCCG (double strand) [DS site 1 20-mer]”, the dissociation constant (Kd) was 0.004 µM in series [1] and 0.233 µM in series [2]. The sequence further displayed a binding signal (fold increase vs P3 alone) in series [3] of 4.
